Assay results taken from patent publication US9879094B2, “Nucleic acid molecules encoding for BACE1 antibodies” (Genentech, Inc., priority 2010, dated 2018).

Biological target: BACE1 (Homo sapiens, UniProt P56817)
Test: HTRF BACE1 enzyme activity assay (long peptide Bi27)
Type: biochemical
Conditions: purified affinity matured Fabs
Procedure: The HTRF assay was performed as follows. […] The proteolytic reaction mixture was incubated at ambient temperature for 75 minutes and was quenched by the addition of 5 μL HTRF detection mixture containing 2 nM Streptavidin-D2 and 150 nM of 6E10 anti-amyloid beta antibody (Covance, Emoryville, Calif.) labeled with Europium cryptate in detection buffer (200 mM Tris pH 8.0, 20 mM EDTA, 0.1% BSA, and 0.8M KF). The final reaction mixture was incubated at ambient temperature for 60 minutes and the TR-FRET signal was measured using an EnVision Multilabel Plate Reader™ (Perkin-Elmer) at an excitation wavelength of 320 nm and emission wavelengths of 615 and 665 nm. Reactions lacking BACE1 enzyme (0 BACE) and reactions containing lacking anti-BACE1 antibodies (PBS (100% BACE1 Activity) were used as controls.
Fab proteins of 6 clones were purified and subjected for HTRF enzyme activity assay, as described above.
The affinity matured YW412.8.31 anti-BACE1 antibody was tested in a HTRF assay as described in Example 1. […] Additionally, reactions using a short FRET peptide (Rh-[…]-quencher (SEQ ID NO:54), Invitrogen) were also performed identically to the HTRF reactions. The resulting fluorogenic products from the control reactions were measured as above, but at an excitation wavelength of 545 nm and an emission wavelength of 585 nm. Obtained data were analyzed using GraphPad Prism 5™ (LaJolla, Calif.).

BACE1, sequence (P56817 22-457): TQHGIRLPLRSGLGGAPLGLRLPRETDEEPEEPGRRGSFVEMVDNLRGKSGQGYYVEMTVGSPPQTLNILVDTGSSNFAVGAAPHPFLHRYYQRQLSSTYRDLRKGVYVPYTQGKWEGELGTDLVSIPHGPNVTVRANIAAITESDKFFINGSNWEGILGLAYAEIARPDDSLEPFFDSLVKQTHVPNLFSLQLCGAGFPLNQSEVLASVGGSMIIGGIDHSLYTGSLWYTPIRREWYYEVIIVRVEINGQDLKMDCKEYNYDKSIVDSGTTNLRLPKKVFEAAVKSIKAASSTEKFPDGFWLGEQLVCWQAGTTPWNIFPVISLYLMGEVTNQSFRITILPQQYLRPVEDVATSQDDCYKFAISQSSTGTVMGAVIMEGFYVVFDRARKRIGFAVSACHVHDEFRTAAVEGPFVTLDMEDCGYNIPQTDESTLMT

| Molecule | inhibition activity compared to parent Fab |
| --- | --- |
| LC4: affinity matured clone derived from Fab5 (antibody, V domains shown) VL: DIQMTQSPSSLSASVGDRVTITCRASQSVSSAVAWYQQKPGKAPKLLIYSASSLYSGVPSRFSGSGSGTDFTLTISSLQPEDFATYYCQQYSYSLLTFGQGTKVEIK VH: EISEVQLVESGGGLVQPGGSLRLSCAASGFNLSYSYIHWVRQAPGKGLEWVASIYSSYGSTYYADSVKGRFTISADTSKNTAYLQMNSLRAEDTAVYYCARSYHHSDKYYYAWSYALDYWGQGTLVTVSS | significant improved inhibition |
| LC40 (antibody, V domains shown) VL: DIQMTQSPSSLSASVGDRVTITCRASQYSYSYSVAWYQQKPGKAPKLLISYASYLYSGVPSRFSGSGSGTDFTLTISSLQPEDFATYYCQQYSYSYSPITFGQGTKVEIK VH: EISEVQLVESGGGLVQPGGSLRLSCAASGFNVSSSSMHWVRQAPGKGLEWVASIYPYSSSTSYADSVKGRFTISADTSKNTAYLQMNSLRAEDTAVYYCARYSYYSYGIDYWGQGTLVTVSS | lost its inhibition activity |
